Growth estimate data for 148 sequences are collected here from the supplement of paper PMC5949888.

This data set has as its system Saccharomyces cerevisiae PS128 hsf1 delta, HSF1(1-493) fusion. Kind of data set: growth estimate (transactivation domain function in HSF1 fusion, heat-shock survival) (a.u. (slope of normalised read count over time)); higher = stronger growth at 37°C, i.e. more transactivation activity. The note with it: library: design library. The method in brief: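 Transactivation-domain oligos were designed and fused to a truncated yeast HSF1 (amino acids 1–493), then expressed in a yeast strain lacking hsf1. Replica plating onto –trp 5-FOA plates was followed by incubation at 30°C or 37°C for 0, 2, 4, 6 and 8 days. Inserts were amplified by PCR and sequenced on an Illumina MiSeq as six barcoded replicates from a single experiment. The growth estimate is the slope of a robust linear fit over time of read counts normalised to sample totals and to starting count.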
With PEFPGIELQRLQELQALLQQ, the growth estimate is -0.107.
With PEFPGIELRELQELQALLQQ, the growth estimate is 0.0112.
On to PEFPGIEPQELQELQALLQQ, for which the growth estimate is 0.114.
The same measure for PEFPGIKLQELQELQALLQQ: -0.02.
The same measure for PEFPGIPLQELQELQALLQQ: -0.204; for PEFPGIRLQELQELQALLQQ: -0.249; for PEFPGKELQELQELQALLQQ: less than -0.25.
Turning to PEFPGRELQELQELQALLQQ, the growth estimate was less than -0.25.
The same measure for PEFPKIELQELQELQALLQQ: less than -0.25; for PEFPPIELQELQELQALLQQ: -0.0915.
PEFRGIELQELQELQALLQQ: the growth estimate is -0.124.
The same measure for PEGPGIELQELQELQALLQQ: less than -0.25.
The same measure for PEKPGIELQELQELQALLQQ: -0.204; for PELSWIIELLEKDG: -0.201.
Turning to PEPPGIELQELQELQALLQQ, the growth estimate was less than -0.25.
The same measure for PFADTQDDFLKWWRSEEAQ: 0.444; for PFDLDMLGDFDLDMLG: 4.25.
Regarding PFDYDFLFGNDFA, the growth estimate is 2.14.
With PFGDTQDDFLKWWRSEEAQ the figure was 0.304; with PFNDLLDLDFILSN, 0.542.
With PFPATQDDFLKWWRSEEAQ the figure was less than -0.25; with PFPDAQDDFLKWWRSEEAQ, -0.158.
Turning to PFPDPQDDFLKWWRSEEAQ, the growth estimate was -0.0255.
The same measure for PFPDRQDDFLKWWRSEEAQ: -0.241; for PFPDTADDFLKWWRSEEAQ: 0.6; for PFPDTGDDFLKWWRSEEAQ: -0.0916.
On to PFPDTKDDFLKWWRSEEAQ, for which the growth estimate is less than -0.25.
PFPDTPDDFLKWWRSEEAQ: the growth estimate is 0.819.
As for PFPDTQADFLKWWRSEEAQ, the growth estimate was less than -0.25.
Regarding PFPDTQDAFLKWWRSEEAQ, the growth estimate is 0.5.
Turning to PFPDTQDDFGKWWRSEEAQ, the growth estimate was less than -0.25.
On to PFPDTQDDFLAWWRSEEAQ, for which the growth estimate is 2.37.
Consider PFPDTQDDFLKAWRSEEAQ, for which the growth estimate was less than -0.25.
In the case of PFPDTQDDFLKGWRSEEAQ, the growth estimate is -0.242.
On to PFPDTQDDFLKKWRSEEAQ, for which the growth estimate was -0.167.
With PFPDTQDDFLKPWRSEEAQ, the growth estimate is less than -0.25.
On to PFPDTQDDFLKWARSEEAQ, for which the growth estimate is 0.0578.
The same measure for PFPDTQDDFLKWPRSEEAQ: less than -0.25; for PFPDTQDDFLKWRRSEEAQ: -0.221.
For PFPDTQDDFLKWWASEEAQ, the growth estimate was 4.59.
For the sequence PFPDTQDDFLKWWGSEEAQ, the growth estimate was 1.82.
Consider PFPDTQDDFLKWWKSEEAQ, for which the growth estimate was -0.186.
Consider PFPDTQDDFLKWWPSEEAQ, for which the growth estimate is 3.12.
The same measure for PFPDTQDDFLKWWRGEEAQ: 0.0794.
Consider PFPDTQDDFLKWWRKEEAQ, for which the growth estimate was -0.247.
The same measure for PFPDTQDDFLKWWRSEAAQ: -0.154.
On to PFPDTQDDFLKWWRSEEAA, for which the growth estimate is -0.236.
For PFPDTQDDFLKWWRSEEAG, the growth estimate was 0.0636.
On to PFPDTQDDFLKWWRSEEAK, for which the growth estimate is -0.25.
With PFPDTQDDFLKWWRSEEAP the figure was 0.0281; with PFPDTQDDFLKWWRSEEAQ, -0.149.
For the sequence PFPDTQDDFLKWWRSEEAR, the growth estimate was -0.248.
With PFPDTQDDFLKWWRSEEGQ the figure was 0.109.
The same measure for PFPDTQDDFLKWWRSEEKQ: less than -0.25; for PFPDTQDDFLKWWRSEGAQ: -0.0427; for PFPDTQDDFLKWWRSEPAQ: -0.225.
With PFPDTQDDFLKWWRSERAQ the figure was less than -0.25; with PFPDTQDDFLKWWRSKEAQ, -0.183.
PFPDTQDDFLKWWRSPEAQ: the growth estimate is -0.176.
The same measure for PFPDTQDDFLKWWRSREAQ: less than -0.25; for PFPDTQDDFLPWWRSEEAQ: -0.145.
With PFPDTQDDFLRWWRSEEAQ the figure was -0.0276; with PFPDTQDDFRKWWRSEEAQ, -0.247; with PFPDTQDDKLKWWRSEEAQ, -0.245.
With PFPDTQDDPLKWWRSEEAQ the figure was less than -0.25; with PFPDTQDDRLKWWRSEEAQ, -0.109.
PFPDTQDGFLKWWRSEEAQ: the growth estimate is less than -0.25.
With PFPDTQDPFLKWWRSEEAQ the figure was less than -0.25.
As to PFPDTQDRFLKWWRSEEAQ, the growth estimate was less than -0.25.
The same measure for PFPDTQGDFLKWWRSEEAQ: -0.248.
Consider PFPDTQKDFLKWWRSEEAQ, for which the growth estimate is less than -0.25.
As to PFPDTQPDFLKWWRSEEAQ, the growth estimate is -0.22.
With PFPDTQRDFLKWWRSEEAQ the figure was -0.245; with PFPGTQDDFLKWWRSEEAQ, less than -0.25; with PFPPTQDDFLKWWRSEEAQ, -0.215.
With PFPRTQDDFLKWWRSEEAQ the figure was -0.248; with PFRDTQDDFLKWWRSEEAQ, -0.0923; with PGFPGIELQELQELQALLQQ, -0.0439.
With PKPDTQDDFLKWWRSEEAQ, the growth estimate was -0.158.
With PLSSHGFSVDTSALLDLFSP the figure was 0.0027; with PMDDVYNYLFDD, 1.41.
Take PPFPGIELQELQELQALLQQ: the growth estimate was -0.187.
The same measure for PQNGEIAQLWDFN: -0.229.
With PRFPGIELQELQELQALLQQ, the growth estimate was less than -0.25.
Consider QGNGEIAQLWDFN, for which the growth estimate is less than -0.25.
With QKNGEIAQLWDFN the figure was less than -0.25; with QQAGEIAQLWDFN, less than -0.25; with QQGGEIAQLWDFN, 0.0021.
Take QQKGEIAQLWDFN: the growth estimate was less than -0.25.
In the case of QQNAEIAQLWDFN, the growth estimate is less than -0.25.
The same measure for QQNGAIAQLWDFN: -0.114.
With QQNGEGAQLWDFN the figure was less than -0.25.
The same measure for QQNGEIAALWDFN: -0.237.
Take QQNGEIAGLWDFN: the growth estimate is -0.148.
Take QQNGEIAPLWDFN: the growth estimate was less than -0.25.
With QQNGEIAQAWDFN the figure was less than -0.25; with QQNGEIAQGWDFN, -0.247.
With QQNGEIAQKWDFN the figure was 0.0645; with QQNGEIAQLADFN, -0.24.
Take QQNGEIAQLGDFN: the growth estimate is -0.218.
With QQNGEIAQLKDFN the figure was -0.215; with QQNGEIAQLRDFN, less than -0.25.
The same measure for QQNGEIAQLWDAN: -0.23; for QQNGEIAQLWDFA: less than -0.25.
Turning to QQNGEIAQLWDFK, the growth estimate is less than -0.25.
Take QQNGEIAQLWDFN: the growth estimate was -0.146.
As for QQNGEIAQLWDFP, the growth estimate was -0.243.
Regarding QQNGEIAQLWDFR, the growth estimate was -0.245.
The same measure for QQNGEIAQLWDGN: -0.163; for QQNGEIAQLWDPN: -0.246.
In the case of QQNGEIAQLWDRN, the growth estimate is -0.121.
With QQNGEIAQLWGFN the figure was less than -0.261; with QQNGEIAQLWKFN, less than -0.25; with QQNGEIAQLWRFN, -0.166.
With QQNGEIAQRWDFN, the growth estimate is less than -0.25.
With QQNGEIARLWDFN the figure was -0.234; with QQNGEIKQLWDFN, less than -0.25.
The same measure for QQNGEIRQLWDFN: -0.0449; for QQNGEKAQLWDFN: -0.22.
With QQNGEPAQLWDFN the figure was -0.235; with QQNGERAQLWDFN, -0.0438.
In the case of QQNGGIAQLWDFN, the growth estimate was -0.189.
In the case of QQNGKIAQLWDFN, the growth estimate is -0.237.
With QQNGRIAQLWDFN the figure was -0.248; with QQNKEIAQLWDFN, -0.241; with QQNPEIAQLWDFN, -0.234.
Take QQNREIAQLWDFN: the growth estimate was less than -0.25.
As for QQPGEIAQLWDFN, the growth estimate is -0.242.
The same measure for QQRGEIAQLWDFN: less than -0.25.
The same measure for RADDIWEELLSEDL: 0.445.
For RDDDEFSLWDSML, the growth estimate is 0.648.
With RDLYSILWSDVY the figure was -0.248.
With RFDLDMLGDFDLDMLG the figure was 0.634.
The same measure for RFDYDFLFGNDFA: 2.62; for RFNDLLDLDFILSN: -0.133; for RFPDTQDDFLKWWRSEEAQ: -0.221.
For RLDESWDYIFETTE, the growth estimate was -0.191.
In the case of RMDDVYNYLFDD, the growth estimate is -0.0132.
The same measure for RQNGEIAQLWDFN: less than -0.25.
On to TADDVYNYLFDD, for which the growth estimate was 0.0678.
Consider TGDDVYNYLFDD, for which the growth estimate is -0.0152.
Take TKDDVYNYLFDD: the growth estimate is -0.238.
The same measure for TMADVYNYLFDD: 0.169; for TMDAVYNYLFDD: 0.158.
Regarding TMDDAYNYLFDD, the growth estimate is -0.228.
The same measure for TMDDGYNYLFDD: less than -0.25; for TMDDPYNYLFDD: -0.0775.
With TMDDRYNYLFDD the figure was -0.144.
